Measured values published in article PMC4424837, “Toxin acidic residue evolutionary function-guided design of de novo peptide drugs for the immunotherapeutic target, the Kv1.3 channel” (Scientific Reports, 2015).
Positions of bridges follow the written chain, without caps; N, C: chain ends. Residues, ends and D or L forms follow the SMILES beside them. No end group written: not given here.

Legend:
Kv1.3 channel = target: T1, Kv1.3 channel (Mus musculus, UniProt P16390); test: Patch-clamp whole-cell recording of Kv1.3 channel currents in transfected HEK293 cells; type: cell-based; settings: for Reduction of the affinity of BmKTX-196 for the Kv1.3 channel: alanyl mutants of BmKTX-196
T1 construct: expressed in transfected cells; host or cells: HEK293 cells
Method: (§1) The cDNAs encoding mouse Kv1.1, human Kv1.2, mouse Kv1.3, human Kv7.1, human Kv11.1, human KCa3.1, human KCa2.2 and human KCa2.3 were subcloned into the Xho I and Bam HI sites of pIRES2-EGFP, a bicistronic expression vector (Clontech, USA) for coexpression with enhanced GFP.
(§2) Electrophysiological experiments were carried out using patch-clamp whole-cell recording as described previously[10][23][27][38]. HEK293 cells were transfected with appropriate cDNA plasmids using the SofastTM Transfection Reagent (Sunma). Potassium currents were recorded 1 to 3 days after transfection and positive cells were selected based on the presence of GFP fluorescence. Electrophysiological experiments were carried out at 22–25°C using patch-clamp whole-cell recording. Data analyses were performed with IgorPro (WaveMetrics, Lake Oswego, OR), and IC50 values were deduced by fitting a modified Hill equation to the data, Itoxin/Icontrol = 1/1 + ([toxin peptide]/IC50), where I is the peak current to the normalized data points obtained with at least five different toxin peptide concentrations. The results are mainly shown as the mean ± S.E, with n representing the number of experiments.

Kv11.1 = test: Patch-clamp whole-cell recording of Kv11.1 channel currents in transfected HEK293 cells; type: cell-based, human; settings: 1 μM peptide, compared with Kv1.3
Method: as §1, §2

T1 sequence (P16390 whole entry): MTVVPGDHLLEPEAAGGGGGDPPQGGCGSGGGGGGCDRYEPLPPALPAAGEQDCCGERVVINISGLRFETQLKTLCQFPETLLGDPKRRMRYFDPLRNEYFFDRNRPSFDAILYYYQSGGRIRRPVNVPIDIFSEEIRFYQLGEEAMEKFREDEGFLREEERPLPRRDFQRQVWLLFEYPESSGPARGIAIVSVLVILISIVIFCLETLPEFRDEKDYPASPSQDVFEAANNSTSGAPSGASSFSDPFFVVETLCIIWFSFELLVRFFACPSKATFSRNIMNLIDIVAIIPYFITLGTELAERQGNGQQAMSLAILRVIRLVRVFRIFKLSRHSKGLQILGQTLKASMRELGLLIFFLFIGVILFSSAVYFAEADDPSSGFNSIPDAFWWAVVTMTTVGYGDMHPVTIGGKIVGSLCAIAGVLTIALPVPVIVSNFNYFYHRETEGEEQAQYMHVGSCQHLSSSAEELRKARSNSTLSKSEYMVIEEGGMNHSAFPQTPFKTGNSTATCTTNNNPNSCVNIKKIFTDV

For “BmKTX-196/H9A: alanyl mutant of BmKTX-196 at His9 (VGINVDCKASGQCLKPCKKAGMRFGKCINGKCDCTPKG; ends and bridges not checked; cysteine pairing not given here)”, the “Reduction of the affinity of BmKTX-196 for the Kv1.3 channel” value (Kv1.3 channel; alanine-scanning mutagenesis) was 3 fold.

With “BmKTX-19/K6A: alanyl mutant of BmKTX-19 at Lys6 (VGINVACKHSGQCLKPCKKAGMRFGKCINGKCDCTPKG; ends and bridges not checked; cysteine pairing not given here)” the “Impact on the inhibitory potency of BmKTX-19 on Kv1.3” value (Kv1.3 channel; alanine-scanning mutagenesis, alanyl mutants of BmKTX-19, compared with the Lys8, His9 and Lys15 substitutions) was “much less of an impact”.

In the case of “BmKTX-196/K8A: alanyl mutant of BmKTX-196 at Lys8 (VGINVDCAHSGQCLKPCKKAGMRFGKCINGKCDCTPKG; ends and bridges not checked; cysteine pairing not given here)”, the “Reduction of the affinity of BmKTX-196 for the Kv1.3 channel” value (Kv1.3 channel; alanine-scanning mutagenesis) is reported as 68 fold.

For `CC[C@H](C)[C@H](NC(=O)CNC(=O)[C@@H](N)C(C)C)C(=O)N[C@@H](CC(N)=O)C(=O)N[C@H](C(=O)N[C@@H](CC(=O)O)C(=O)N[C@H]1CSSC[C@@H]2NC(=O)[C@H](CCCCN)NC(=O)CNC(=O)[C@H](Cc3ccccc3)NC(=O)[C@H](CCCNC(=N)N)NC(=O)[C@H](CCSC)NC(=O)CNC(=O)[C@H](C)NC(=O)[C@H](CCCCN)NC(=O)[C@H](CCCCN)NC(=O)[C@@H]3CSSC[C@@H](C(=O)N[C@H](C(=O)N4CCC[C@H]4C(=O)N[C@@H](CCCCN)C(=O)O)[C@@H](C)O)NC(=O)[C@H](CC(=O)O)NC(=O)[C@H](CSSC[C@H](NC(=O)[C@H](CCC(N)=O)NC(=O)CNC(=O)[C@H](CO)NC(=O)[C@H](Cc4c[nH]cn4)NC(=O)[C@H](CCCCN)NC1=O)C(=O)N[C@@H](CC(C)C)C(=O)N[C@@H](CCCCN)C(=O)N1CCC[C@H]1C(=O)N3)NC(=O)[C@H](CCCCN)NC(=O)CNC(=O)[C@H](CC(N)=O)NC(=O)[C@H]([C@@H](C)CC)NC2=O)C(C)C` [BmKTX-196] (H-VGINVDCKHSGQCLKPCKKAGMRFGKCINGKCDCTPK-OH; disulfide 7-27, 13-32, 17-34), the “Inhibition of Kv1.3 channel currents” value (Kv1.3 channel; 10 nM peptide, whole-cell patch clamp, HEK293) was “more than 50%”, the IC50 (Kv1.3 channel; whole-cell patch clamp, HEK293 transfected with mouse Kv1.3, 22-25°C, Hill fit, at least five concentrations, mean ± S.E. of at least three experiments, read-out: IC50 for inhibiting Kv1.3 channel current) was 7.3 ± 1.8 nM and the “Effect on Kv11.1 channel currents” value (Kv11.1) was “much less of an effect”.
